In publication PMC3115021, “Dynamics of Cdk1 Substrate Specificity during the Cell Cycle” (Molecular Cell, 2011):

Legend:
Test in all cases: Quantitative phosphorylation assay of T33-Sic1ΔC constructs and recombinant substrates
Format in all cases: biochemical
Conditions in all cases: Table S2; purified protein substrate; relative values, not divided by [S]
[1] = target: T1, Clb2-Cdk1 (Saccharomyces cerevisiae, UniProt P00546+P24869)
T1 construct: We purified the four cyclin-Cdk1 complexes from yeast; made in house; host or cells: S. cerevisiae strain DOM0077 (gal-CLB2-TAP, sic1 deleted); Cks1 from bacteria
Description: (§1) For the quantitative phosphorylation assays of T33-Sic1ΔC constructs and recombinant substrates, substrate concentrations were kept in the range of 0.5–2 μM (in the linear [S] versus v0 range, several-fold below the estimated KM value), and initial velocity conditions were defined as an initial substrate turnover of up to 10% of the total turnover. For the steady-state peptide kinetics of the Histone peptide PKTPKKAKKL, a similar assay composition was used as for protein substrates, and phosphocellulose paper was used for the quantification of the phosphorylated substrate. […]
(§2) similar substrate specificity as the Cln2-Cdk1 version purified using a TAP-tag. N-terminally 6His-tagged recombinant T33-Sic1ΔC constructs and substrates were cloned into the pET28a vector and purified by standard cobalt affinity chromatography and elution with 200 mM imidazole. 6His-Fin1 was purified as described previously (Woodbury and Morgan, 2007). Substrates cloned into the pGEX-4T-1 were purified on glutathione agarose columns using 5 mM reduced glutathione for elution. Cks1 was purified as described previously (Reynard et al., 2000). The optimal working concentration for purified Cks1 was taken as 500 nM based on optimization performed for cyclin-Cdk1 preparations and T33-Sic1ΔC as a substrate.
(§3) For the quantitative phosphorylation assays of T33-Sic1ΔC constructs and recombinant substrates, substrate concentrations were kept in the range of 0.5-2 μM (in the linear [S] vs v0 range, several-fold below the estimated KM value), and the initial velocity conditions were defined as an initial substrate turnover ranging up to 10% of the total turnover. The latter was estimated by a long-term incubation with excess amounts of cyclin-Cdk1 and 32P-γ-ATP in the standard reaction mixture given below. About 1-10 nM of purified kinase complex was used, reaction aliquots were taken at two or more time points, and the reaction was stopped by SDS-PAGE sample buffer. The relative kcat/KM values for the substrates were calculated as the ratio of v0/[S], which was determined from at least two independent experiments. The basal composition of the assay mixture contained 50 mM Hepes, pH 7.4, 100 mM NaCl, 0.1% NP-40, 20 mM imidazole, 0.1 mg/ml 2HA peptide, 2% glycerol, 2 mM EGTA, 0.2 mg/ml BSA, […], and 500 μM ATP (with added 32P-γ-ATP (Perkin Elmer)).
(§4) About 1-10 nM of purified kinase complex was used, reaction aliquots were taken at two or more time points, and the reaction was stopped by SDS-PAGE sample buffer. For the steady-state peptide kinetics of the Histone peptide PKTPKKAKKL, a similar assay composition was used as for protein substrates and the standard phosphocellulose method was applied for the quantification of the phosphorylated substrate (Loog and Morgan, 2005). Synthetic peptides as competitor agents were used in 4 mM final concentrations. […]

[2] = target: T2, Clb3-Cdk1 (Saccharomyces cerevisiae, UniProt P00546+P24870)
T2 construct: We purified the four cyclin-Cdk1 complexes from yeast; made in house; host or cells: S. cerevisiae strain DOM0957 (gal-CLB3-TAP, sic1 deleted); Cks1 from bacteria
Description: as §1, §2, §3, §4

[3] = target: T3, Clb5-Cdk1 (Saccharomyces cerevisiae, UniProt P00546+P30283)
T3 construct: We purified the four cyclin-Cdk1 complexes from yeast; made in house; host or cells: S. cerevisiae strain DOM0076 (gal-CLB5-TAP, sic1 deleted); Cks1 from bacteria
Description: as §1, §2, §3, §4

[4] = target: T4, Cln2-Cdk1 (Saccharomyces cerevisiae, UniProt P00546+P20438)
T4 construct: We purified the four cyclin-Cdk1 complexes from yeast; made in house; host or cells: S. cerevisiae strain DMY305 (galactose-induced); Cks1 from bacteria
Description: as §1, §2, §3, §4

[5] = target: T5, Clb2hpm-Cdk1 (Saccharomyces cerevisiae, UniProt P00546)
T5 construct: made in house; host or cells: S. cerevisiae strain DOM0964 (gal-CLB2hpm-TAP, sic1 deleted); Cks1 from bacteria
Description: (§5) For the quantitative phosphorylation assays of T33-Sic1ΔC constructs and recombinant substrates, substrate concentrations were kept in the range of 0.5–2 μM (in the linear [S] versus v0 range, several-fold below the estimated KM value), and initial velocity conditions were defined as an initial substrate turnover of up to 10% of the total turnover. For the steady-state peptide kinetics of the Histone peptide PKTPKKAKKL, a similar assay composition was used as for protein substrates, and phosphocellulose paper was used for the quantification of the phosphorylated substrate.
(§6) Supplemental Experimental Procedures
(§7) Plasmid constructs and yeast strains
(§8) For tandem affinity purification (TAP) of cyclin-Cdk1 complexes, the cyclin genes were cloned into the 2 micron vector pRSAB1234 containing a GAL1 promoter and the C-terminal TAP-tag. To purify different 6His-T33-Sic1ΔC forms for kinase assays, the C-terminally truncated fragment of Sic1 (with a stop codon inserted after amino acid 215) was cloned into the NheI/BamHI site of the bacterial expression vector pET28a (Invitrogen). Mutagenesis of cyclins or substrates was performed using single-stranded pRSAB1234 or pET28a vector constructs as templates. The triple mutants in the hydrophobic patch (hpm) of Clb5 and Clb2 were described previously (Loog and Morgan, 2005), and the hpm of Clb3 (Phe-201, Leu-205 and Trp-208 mutated to alanines) was designed according to sequence homology with other B-type cyclins. In T33-Sic1ΔC constructs, the other Cdk sites bearing the consensus motif S/T-P were mutated to Ala-Ala in order to prevent any possible (pseudo)substrate competition. The other Cdk substrates were cloned as full-length forms into bacterial expression vectors pET28a or pGEX-4T-1. Cdh1 was purified using the baculovirus system and was a kind gift from Monica Rodrigo-Brenni (UCSF). […]
The […]
(§9) pRSAB1234 analogously to the cyclin-Cdk1 complexes. For C-terminal tagging of cyclin genes in their chromosomal loci, the Pringle method was applied (Longtine et al., 1998). Lists of plasmid […]
(§10) The TAP method was applied for purification of cyclin-Cdk1 complexes and Swe1 as described previously for Clb5-TAP-Cdk1 and Clb2-TAP-Cdk1 (Puig et al., 2001; Ubersax et al., 2003). […]
as §2, with “tagged” for “similar substrate specificity as the Cln2-Cdk1 version purified using a TAP-tag. N-terminally 6His-tagged”
as §3
(§11) About 1-10 nM of purified kinase complex was used, reaction aliquots were taken at two or more […]

[6] = target: T6, Clb3hpm-Cdk1 (Saccharomyces cerevisiae, UniProt P00546+P24870)
T6 construct: made in house; host or cells: S. cerevisiae strain MK0168 (gal-CLB3hpm-TAP, sic1 deleted); Cks1 from bacteria
Description: as §5, §6, §7, §8
The […]
as §9, §10
as §2, with “tagged” for “similar substrate specificity as the Cln2-Cdk1 version purified using a TAP-tag. N-terminally 6His-tagged”
as §3, §11

[7] = target: T7, Clb5hpm-Cdk1 (Saccharomyces cerevisiae, UniProt P00546)
T7 construct: made in house; host or cells: S. cerevisiae strain DOM0963 (gal-CLB5hpm-TAP, sic1 deleted); Cks1 from bacteria
Description: as §5, §6, §7, §8
The […]
as §9, §10
as §2, with “tagged” for “similar substrate specificity as the Cln2-Cdk1 version purified using a TAP-tag. N-terminally 6His-tagged”
as §3, §11

T2 sequence (P00546 2-298 limits assumed): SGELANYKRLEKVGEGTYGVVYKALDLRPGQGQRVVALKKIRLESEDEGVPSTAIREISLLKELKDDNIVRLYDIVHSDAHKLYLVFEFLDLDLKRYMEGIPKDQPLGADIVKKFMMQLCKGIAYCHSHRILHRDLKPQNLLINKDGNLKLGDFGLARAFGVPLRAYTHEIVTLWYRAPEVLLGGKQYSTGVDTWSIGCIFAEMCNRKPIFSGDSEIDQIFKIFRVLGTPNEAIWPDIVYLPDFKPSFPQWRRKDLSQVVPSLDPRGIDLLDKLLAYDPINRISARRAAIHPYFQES
T2 sequence (P24870 whole entry partner): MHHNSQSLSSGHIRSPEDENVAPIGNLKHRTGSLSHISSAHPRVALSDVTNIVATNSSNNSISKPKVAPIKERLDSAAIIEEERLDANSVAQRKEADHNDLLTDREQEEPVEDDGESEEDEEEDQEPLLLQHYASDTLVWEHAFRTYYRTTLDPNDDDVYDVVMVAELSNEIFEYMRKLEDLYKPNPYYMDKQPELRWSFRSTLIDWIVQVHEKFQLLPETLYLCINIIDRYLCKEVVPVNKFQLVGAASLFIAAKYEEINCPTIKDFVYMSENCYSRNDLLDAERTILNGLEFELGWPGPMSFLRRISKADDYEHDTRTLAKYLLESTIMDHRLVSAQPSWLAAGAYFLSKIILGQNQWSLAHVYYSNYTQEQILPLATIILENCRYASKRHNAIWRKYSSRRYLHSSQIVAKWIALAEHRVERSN
T2 sequence (P20486 whole entry partner): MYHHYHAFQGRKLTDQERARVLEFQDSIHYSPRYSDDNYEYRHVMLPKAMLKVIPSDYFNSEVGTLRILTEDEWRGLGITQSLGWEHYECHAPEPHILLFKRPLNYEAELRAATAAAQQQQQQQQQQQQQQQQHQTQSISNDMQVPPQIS
T1 sequence (P00546 2-298 limits assumed): as the sequence (P00546 2-298 limits assumed) above
T1 sequence (P24869 2-491 partner limits assumed): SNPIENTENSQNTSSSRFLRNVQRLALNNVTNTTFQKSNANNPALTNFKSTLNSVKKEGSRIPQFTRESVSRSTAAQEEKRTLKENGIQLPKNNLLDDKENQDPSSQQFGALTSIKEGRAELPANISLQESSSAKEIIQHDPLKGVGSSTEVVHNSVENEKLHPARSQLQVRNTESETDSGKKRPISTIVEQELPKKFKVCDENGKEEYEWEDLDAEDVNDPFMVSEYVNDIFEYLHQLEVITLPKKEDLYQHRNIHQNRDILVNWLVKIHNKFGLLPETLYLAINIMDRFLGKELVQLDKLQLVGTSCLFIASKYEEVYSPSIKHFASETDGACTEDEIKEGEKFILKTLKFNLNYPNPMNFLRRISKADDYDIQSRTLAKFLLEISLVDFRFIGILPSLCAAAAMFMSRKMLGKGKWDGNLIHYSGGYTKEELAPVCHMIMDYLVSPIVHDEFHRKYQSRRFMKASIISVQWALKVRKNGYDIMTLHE
T1 sequence (P20486 whole entry partner): as the sequence (P20486 whole entry partner) above
T3 sequence (P00546 2-298 limits assumed): as the sequence (P00546 2-298 limits assumed) above
T3 sequence (P30283 whole entry partner): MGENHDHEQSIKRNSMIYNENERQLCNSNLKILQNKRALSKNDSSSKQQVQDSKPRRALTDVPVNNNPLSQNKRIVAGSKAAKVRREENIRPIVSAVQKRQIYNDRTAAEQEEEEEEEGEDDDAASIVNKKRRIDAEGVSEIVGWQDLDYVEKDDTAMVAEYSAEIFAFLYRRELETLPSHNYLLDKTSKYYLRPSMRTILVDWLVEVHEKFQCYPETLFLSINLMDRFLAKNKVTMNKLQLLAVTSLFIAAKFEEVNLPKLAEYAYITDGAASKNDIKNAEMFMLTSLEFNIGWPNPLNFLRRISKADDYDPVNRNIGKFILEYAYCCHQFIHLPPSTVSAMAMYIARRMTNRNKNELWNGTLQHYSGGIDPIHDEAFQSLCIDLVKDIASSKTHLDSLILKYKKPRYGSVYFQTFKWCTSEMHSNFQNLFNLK
T3 sequence (P20486 whole entry partner): as the sequence (P20486 whole entry partner) above
T7 sequence (P00546 2-298 limits assumed): as the sequence (P00546 2-298 limits assumed) above
T4 sequence (P00546 2-298 limits assumed): as above
T4 sequence (P20438 whole entry partner): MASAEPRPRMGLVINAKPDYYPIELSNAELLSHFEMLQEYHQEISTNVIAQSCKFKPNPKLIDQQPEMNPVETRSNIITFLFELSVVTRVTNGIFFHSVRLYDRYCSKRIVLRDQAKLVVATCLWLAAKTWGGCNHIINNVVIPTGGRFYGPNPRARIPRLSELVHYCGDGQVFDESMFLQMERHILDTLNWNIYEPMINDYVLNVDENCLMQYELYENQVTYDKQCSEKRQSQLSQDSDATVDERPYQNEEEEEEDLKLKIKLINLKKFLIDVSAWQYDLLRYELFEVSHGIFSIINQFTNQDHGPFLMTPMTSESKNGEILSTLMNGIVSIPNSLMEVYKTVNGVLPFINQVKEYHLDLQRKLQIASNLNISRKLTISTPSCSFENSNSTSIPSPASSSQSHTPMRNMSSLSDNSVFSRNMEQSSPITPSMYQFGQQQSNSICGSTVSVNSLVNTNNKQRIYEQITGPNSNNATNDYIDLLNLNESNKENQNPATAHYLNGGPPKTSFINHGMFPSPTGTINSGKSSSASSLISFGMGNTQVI
T4 sequence (P20486 whole entry partner): as the sequence (P20486 whole entry partner) above
T5 sequence (P00546 2-298 limits assumed): as the sequence (P00546 2-298 limits assumed) above

Molecule | kcat/KM, Clb2 [1] [relative units] | kcat/KM, Clb3 [2] [relative units] | kcat/KM, Clb5 [3] [relative units] | kcat/KM, Cln2 [4] [relative units] | kcat/KM, Clb2hpm [5] [relative units] | kcat/KM, Clb3hpm [6] [relative units] | kcat/KM, Clb5hpm [7] [relative units]
ASH1: transcription factor, purified protein tested as Cdk1 substrate | 0.462 | 0.697 | 0.111 | 0.422 | 0.389 | 0.134 | 0.052
Histone H1 [reference compound] | 4.900 | 2.237 | 0.605 | 1.394 | 4.287 | 1.957 | 0.427
FIR1: purified yeast protein tested as Cdk1 substrate (protein, UniProt P40020 1-876, looked up) Factor interacting with REF2: MSLPVTPVKSKVCSTLSIQHEMDHDQCRDVLCPRENLLAINRTNNIESVAIPRQRSSKNKKPHEHTQSQVRFSIPDPNEISQDSPLKIVFPKSGNETERRMSTSSLLMNSHGHLVDMHSKILVDVPKEVWKFHHNRRKKCESRHRKTRSDVRSNTSSSGKEPNHSRSKSLQSIIVDTMNTYRATEVETSINENTSNISQVSPLNLSFDRPPPLTPEKNLYLTPESPLNRYHLPVPLEISLPPYLSPQNKDKKRSSLVYDGDGYSQFQEGNTSSSTESSLEQPSSSYSDEDDSIPYAHHDVSFELNNADADKLLGIDENANVNLKIQRRNLKNPQHIKSKTDRECEEKNTEKNVSLKILSTPNKLIDIPDLEHMKSPPSTGLNGTLKFFQQFEPSEEPTSPTRQVNPESLDKLDMSFKFPSSTTNNNVDKVHENRNSGDTNNEDFLKVDTSPVNQSFESRRQMLIDLQKSPTNNNPRIHKHRRSRSVHNIDDISLNFEATSTPPAPTSAPSIPVEHSNPCTSIEIPKRSPLRFTSSPKTSDIPPEAQSPKNGSFLQEISVPSIQIIPDESISHTREPSPSLIECPEDENEAFSTEVADHSIAIISETKSVPSIEPFKPLSSFNSFGQEIQNKEPTPLNQTPTDLIGKQRNCVNPHSIPFSVLSSNSQSSQSGSSKSSYNSEFSSNTAITDTTSQPSVTINRSTLEHNFIEEKRSIKNLGHGPPSQKNNYSFPRNKNTPSNRHDLDFNTIYEKRDGKMVEVILLDEDEDVGLKNNDISRTRVCHAQKAKNEQQKKRLSHCNEILGMCDKTADDAKRIIYQLVNEKHKFSEKGQQTKPKKSRVLPPLPFPLYDEKGNSLIPNKYQSSIHNDIPSHRKLK | 0.836 | 0.223 | 0.032 | 0.042 | 0.111 | 0.017 | 0.008
NDD1: component of the transcription factor complex controlling G2/M-specific genes, tested as Cdk1 substrate (protein, UniProt Q08887 1-554, looked up) Nuclear division defective …: MDRDISYQQNYTSTGATATSSRQPSTDNNADTNFLKVMSEFKYNFNSPLPTTTQFPTPYSSNQYQQTQDHFANTDAHNSSSNESSLVENSILPHHQQIQQQQQQQQQQQQQQQALGSLVPPAVTRTDTSETLDDINVQPSSVLQFGNSLPSEFLVASPEQFKEFLLDSPSTNFNFFHKTPAKTPLRFVTDSNGAQQSTTENPGQQQNVFSNVDLNNLLKSNGKTPSSSCTGAFSRTPLSKIDMNLMFNQPLPTSPSKRFSSLSLTPYGRKILNDVGTPYAKALISSNSALVDFQKARKDITTNATSIGLENANNILQRTPLRSNNKKLFIKTPQDTINSTSTLTKDNENKQDIYGSSPTTIQLNSSITKSISKLDNSRIPLLASRSDNILDSNVDDQLFDLGLTRLPLSPTPNCNSLHSTTTGTSALQIPELPKMGSFRSDTGINPISSSNTVSFKSKSGNNNSKGRIKKNGKKPSKFQIIVANIDQFNQDTSSSSLSSSLNASSSAGNSNSNVTKKRASKLKRSQSLLSDSGSKSQARKSCNSKSNGNLFNSQ | 3.129 | 2.121 | 0.388 | 0.143 | 1.108 | 0.222 | 0.096
